# Laboratory results published in US20240309103A1 (Regeneron, published 2024).
# B1: mAb22809 (antibody, human IgG4, V domains shown)
# VH: QLQLRESGPGLVKPSETLSLTCTVSGGSINDNSFFWDWIRQTPGRGLEWIGNIFFDGNTYYTPSLKSRVIISVDMSQNQFSLRLTSVTAADTALYYCARHKRSMTAWGFFDYWGQGTLVTVSS
# VL: DIQMTQSPSSLSASVGDRVTITCRASKRINTYLNWYQQKPGKAPKVLIYSASNLQSGVPSRFSGSGSGTDFTLTINSLQPEDFATYFCQQSFSAPPITFGQGTRLEIK
# B2: mAb22035 (antibody, human IgG4, V domains shown)
# VH: EVQLVESGGGLVQPGRSLRLSCAASGFTFDDYAMHWVRQAPGKGLEWVSGISWNSGTIGYADSVKGRFTMSRDNAKNSLYLQMNSLRPEDTALYYCAKDMGVSLALWGAFDIWGQGTMVTVSS
# VL: DIQMTQSPSSLSASVGDKVTITCRASQNIRTYLNWYQQKPGKAPKVLISTASSLQSGVPSRFSGSGSGTDFTLTISSLQPEDFAVFYCQQSFGIPRTFGQGTKVEIK
# B3: mAb22033 (antibody, human IgG4, V domains shown)
# VH: QVQLVQSGAEVKKPGASVTVSCKASGYTFTDYYMHWVRQAPGQGLEWMGWIKPNSGGTNSAQRFQGRITMTWDTSISTAYMELSRLRSDDTAVYYCSRGGPVMNYYYYYGMDVWGQGTTVTVSS
# VL: NIQMTQSPSSLSASVGDRVTITCRASQSIDSYLNWYQQKPGKAPKLLIYVASSLQSGVPSRFSGSGSGKDFTLTISSLQPEDFATYYCQQSYSIPTFGQGTRLEIK
# Key:
# mfNPR1-mFc [1] = molecular target: T1, mfNPR1-mFc (monkey); assay: SPR, mAb captured, 25C
# T1 construct: also called dimeric monkey NPR1
# T1 chain: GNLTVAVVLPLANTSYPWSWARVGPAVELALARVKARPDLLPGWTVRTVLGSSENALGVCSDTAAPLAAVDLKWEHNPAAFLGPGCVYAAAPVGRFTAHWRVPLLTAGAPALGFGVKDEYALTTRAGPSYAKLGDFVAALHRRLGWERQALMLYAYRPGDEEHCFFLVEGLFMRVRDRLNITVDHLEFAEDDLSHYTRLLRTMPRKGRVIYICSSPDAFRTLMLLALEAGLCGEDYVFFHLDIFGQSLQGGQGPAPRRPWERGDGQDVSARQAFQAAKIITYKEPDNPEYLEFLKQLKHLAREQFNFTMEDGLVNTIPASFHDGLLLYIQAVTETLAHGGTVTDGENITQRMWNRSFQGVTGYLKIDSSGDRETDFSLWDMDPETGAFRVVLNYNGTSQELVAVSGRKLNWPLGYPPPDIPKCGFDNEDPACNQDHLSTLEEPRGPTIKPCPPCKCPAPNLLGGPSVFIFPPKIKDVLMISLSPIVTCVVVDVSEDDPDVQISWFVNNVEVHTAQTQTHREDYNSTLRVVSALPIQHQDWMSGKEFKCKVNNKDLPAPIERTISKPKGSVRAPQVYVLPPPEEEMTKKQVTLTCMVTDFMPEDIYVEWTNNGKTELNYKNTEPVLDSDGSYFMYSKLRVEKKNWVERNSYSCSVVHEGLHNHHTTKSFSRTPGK
# Experimental: (§1) Equilibrium dissociation constant (KD) for different NPR1 reagents binding to purified anti-NPR1 monoclonal antibodies (mAbs) were determined using a real-time surface plasmon resonance based Biacore 4000 biosensor. All binding studies were performed in 10 mM HEPES, 150 mM NaCl, 3 mM EDTA, and 0.05% v/v Surfactant Tween-20, pH 7.4 (HBS-ET) running buffer at 25° C. and 37° C. The Biacore CM5 sensor chip surface was first derivatized by amine coupling with either mouse anti-human Fc specific mAb (GE Healthcare, #BR100839) or goat anti-human Fcy specific polyclonal antibody (Jackson ImmunoResearch Laboratories, #BR-1008-39) to capture anti-NPR1 mAbs.
# [2] = molecular target: T2, hNPR1-mFc:hANP or hNPR1-hFc:hANP complex (human, UniProt P01160 124-151); assay: SPR, mAb captured, 25C
# T2 construct: also called human NPR1 complexed to ANP
# Experimental: as §1
# hNPR1-mFc:hBNP complex [3] = molecular target: T3, hNPR1-mFc:hBNP complex (human, UniProt P16860 103-134); assay: SPR, mAb captured, 25C
# T3 construct: also called human NPR1 complexed to BNP
# Experimental: as §1
# mfNPR1-mFc:hANP complex [4] = molecular target: T4, mfNPR1-mFc:hANP complex (monkey; human, UniProt P01160 124-151); assay: SPR, mAb captured, 25C
# T4 construct: also called monkey NPR1 complexed to ANP
# Experimental: as §1
# mfNPR1-mFc:hBNP complex = molecular target: T5, mfNPR1-mFc:hBNP complex (monkey; human, UniProt P16860 103-134); assay: SPR, mAb captured, 25C
# T5 construct: also called monkey NPR1 complexed to BNP
# Experimental: as §1
# mfNPR1-mFc [5] = molecular target: T1, mfNPR1-mFc; assay: SPR, mAb captured, 37C
# Experimental: as §1
# [6] = molecular target: T2, hNPR1-mFc:hANP or hNPR1-hFc:hANP complex; assay: SPR, mAb captured, 37C
# Experimental: as §1
# hNPR1-mFc:hBNP complex [7] = molecular target: T3, hNPR1-mFc:hBNP complex; assay: SPR, mAb captured, 37C
# Experimental: as §1
# mfNPR1-mFc:hANP complex [8] = molecular target: T4, mfNPR1-mFc:hANP complex; assay: SPR, mAb captured, 37C
# Experimental: as §1
binder,measurement,setting,value
B1,100 nM Ag Bound (RU),mfNPR1-mFc [1],6 RU
same,binding result,mfNPR1-mFc [1],no binding (tested: 100 nM)
same,100 nM Ag Bound (RU),[2],53 RU
same,Kd,[2],4.94 nM
same,koff,[2],0.000193 s⁻¹
same,kon,[2],39200 M⁻¹ s⁻¹
same,t½,[2],0.995 h
same,100 nM Ag Bound (RU),hNPR1-mFc:hBNP complex [3],51 RU
same,Kd,hNPR1-mFc:hBNP complex [3],6.72 nM
same,koff,hNPR1-mFc:hBNP complex [3],0.000221 s⁻¹
same,kon,hNPR1-mFc:hBNP complex [3],32800 M⁻¹ s⁻¹
same,t½,hNPR1-mFc:hBNP complex [3],0.873 h
same,100 nM Ag Bound (RU),mfNPR1-mFc:hANP complex [4],86 RU
same,Kd,mfNPR1-mFc:hANP complex [4],3.88 nM
same,koff,mfNPR1-mFc:hANP complex [4],0.000173 s⁻¹
same,kon,mfNPR1-mFc:hANP complex [4],44700 M⁻¹ s⁻¹
same,t½,mfNPR1-mFc:hANP complex [4],1.11 h
same,100 nM Ag Bound (RU),mfNPR1-mFc:hBNP complex,80 RU
same,Kd,mfNPR1-mFc:hBNP complex,3.85 nM
same,koff,mfNPR1-mFc:hBNP complex,0.00016 s⁻¹
same,kon,mfNPR1-mFc:hBNP complex,41400 M⁻¹ s⁻¹
same,t½,mfNPR1-mFc:hBNP complex,1.21 h
same,100 nM Ag Bound (RU),mfNPR1-mFc [5],8 RU
same,100 nM Ag Bound (RU),[6],68 RU
same,Kd,[6],3.29 nM
same,koff,[6],0.000166 s⁻¹
same,kon,[6],50400 M⁻¹ s⁻¹
same,t½,[6],1.16 h
same,100 nM Ag Bound (RU),hNPR1-mFc:hBNP complex [7],63 RU
same,Kd,hNPR1-mFc:hBNP complex [7],3.56 nM
same,koff,hNPR1-mFc:hBNP complex [7],0.000166 s⁻¹
same,kon,hNPR1-mFc:hBNP complex [7],46500 M⁻¹ s⁻¹
same,t½,hNPR1-mFc:hBNP complex [7],1.16 h
same,100 nM Ag Bound (RU),mfNPR1-mFc:hANP complex [8],106 RU
same,Kd,mfNPR1-mFc:hANP complex [8],3.7 nM
same,koff,mfNPR1-mFc:hANP complex [8],0.000205 s⁻¹
same,kon,mfNPR1-mFc:hANP complex [8],55500 M⁻¹ s⁻¹
same,t½,mfNPR1-mFc:hANP complex [8],0.937 h
B2,100 nM Ag Bound (RU),mfNPR1-mFc [1],231 RU
same,Kd,mfNPR1-mFc [1],0.229 nM
same,koff,mfNPR1-mFc [1],5.57e-05 s⁻¹
same,kon,mfNPR1-mFc [1],244000 M⁻¹ s⁻¹
same,t½,mfNPR1-mFc [1],3.45 h
same,100 nM Ag Bound (RU),[2],186 RU
same,Kd,[2],0.434 nM
same,koff,[2],7.78e-05 s⁻¹
same,kon,[2],179000 M⁻¹ s⁻¹
same,t½,[2],2.47 h
same,100 nM Ag Bound (RU),hNPR1-mFc:hBNP complex [3],194 RU
same,Kd,hNPR1-mFc:hBNP complex [3],0.508 nM
same,koff,hNPR1-mFc:hBNP complex [3],8.7e-05 s⁻¹
same,kon,hNPR1-mFc:hBNP complex [3],171000 M⁻¹ s⁻¹
same,t½,hNPR1-mFc:hBNP complex [3],2.21 h
same,100 nM Ag Bound (RU),mfNPR1-mFc:hANP complex [4],227 RU
same,Kd,mfNPR1-mFc:hANP complex [4],0.246 nM
same,koff,mfNPR1-mFc:hANP complex [4],4.66e-05 s⁻¹
same,kon,mfNPR1-mFc:hANP complex [4],189000 M⁻¹ s⁻¹
same,t½,mfNPR1-mFc:hANP complex [4],4.13 h
same,100 nM Ag Bound (RU),mfNPR1-mFc:hBNP complex,231 RU
same,Kd,mfNPR1-mFc:hBNP complex,0.3 nM
same,koff,mfNPR1-mFc:hBNP complex,6.13e-05 s⁻¹
same,kon,mfNPR1-mFc:hBNP complex,205000 M⁻¹ s⁻¹
same,t½,mfNPR1-mFc:hBNP complex,3.14 h
same,100 nM Ag Bound (RU),mfNPR1-mFc [5],291 RU
same,Kd,mfNPR1-mFc [5],0.184 nM
same,koff,mfNPR1-mFc [5],8.44e-05 s⁻¹
same,kon,mfNPR1-mFc [5],459000 M⁻¹ s⁻¹
same,t½,mfNPR1-mFc [5],2.28 h
same,100 nM Ag Bound (RU),[6],237 RU
same,Kd,[6],0.508 nM
same,koff,[6],0.000114 s⁻¹
same,kon,[6],225000 M⁻¹ s⁻¹
same,t½,[6],1.68 h
same,100 nM Ag Bound (RU),hNPR1-mFc:hBNP complex [7],243 RU
same,Kd,hNPR1-mFc:hBNP complex [7],0.553 nM
same,koff,hNPR1-mFc:hBNP complex [7],0.000128 s⁻¹
same,kon,hNPR1-mFc:hBNP complex [7],232000 M⁻¹ s⁻¹
same,t½,hNPR1-mFc:hBNP complex [7],1.5 h
same,100 nM Ag Bound (RU),mfNPR1-mFc:hANP complex [8],283 RU
same,Kd,mfNPR1-mFc:hANP complex [8],0.302 nM
same,koff,mfNPR1-mFc:hANP complex [8],7.7e-05 s⁻¹
same,kon,mfNPR1-mFc:hANP complex [8],255000 M⁻¹ s⁻¹
same,t½,mfNPR1-mFc:hANP complex [8],2.5 h
B3,100 nM Ag Bound (RU),mfNPR1-mFc [1],96 RU
same,Kd,mfNPR1-mFc [1],0.938 nM
same,koff,mfNPR1-mFc [1],4.85e-05 s⁻¹
same,kon,mfNPR1-mFc [1],51700 M⁻¹ s⁻¹
same,t½,mfNPR1-mFc [1],3.97 h
same,100 nM Ag Bound (RU),[2],84 RU
same,Kd,[2],1.43 nM
same,koff,[2],8.6e-05 s⁻¹
same,kon,[2],60300 M⁻¹ s⁻¹
same,t½,[2],2.24 h
same,100 nM Ag Bound (RU),hNPR1-mFc:hBNP complex [3],85 RU
same,Kd,hNPR1-mFc:hBNP complex [3],1.23 nM
same,koff,hNPR1-mFc:hBNP complex [3],6.67e-05 s⁻¹
same,kon,hNPR1-mFc:hBNP complex [3],54300 M⁻¹ s⁻¹
same,t½,hNPR1-mFc:hBNP complex [3],2.89 h
same,100 nM Ag Bound (RU),mfNPR1-mFc:hANP complex [4],133 RU
same,Kd,mfNPR1-mFc:hANP complex [4],0.815 nM
same,koff,mfNPR1-mFc:hANP complex [4],5.36e-05 s⁻¹
same,kon,mfNPR1-mFc:hANP complex [4],65800 M⁻¹ s⁻¹
same,t½,mfNPR1-mFc:hANP complex [4],3.59 h
same,100 nM Ag Bound (RU),mfNPR1-mFc:hBNP complex,132 RU
same,Kd,mfNPR1-mFc:hBNP complex,0.781 nM
same,koff,mfNPR1-mFc:hBNP complex,5.15e-05 s⁻¹
same,kon,mfNPR1-mFc:hBNP complex,65900 M⁻¹ s⁻¹
same,t½,mfNPR1-mFc:hBNP complex,3.74 h
same,100 nM Ag Bound (RU),mfNPR1-mFc [5],126 RU
same,Kd,mfNPR1-mFc [5],2.06 nM
same,koff,mfNPR1-mFc [5],9.9e-05 s⁻¹
same,kon,mfNPR1-mFc [5],48200 M⁻¹ s⁻¹
same,t½,mfNPR1-mFc [5],1.95 h
same,100 nM Ag Bound (RU),[6],108 RU
same,Kd,[6],1.69 nM
same,koff,[6],9.8e-05 s⁻¹
same,kon,[6],57900 M⁻¹ s⁻¹
same,t½,[6],1.97 h
same,100 nM Ag Bound (RU),hNPR1-mFc:hBNP complex [7],108 RU
same,Kd,hNPR1-mFc:hBNP complex [7],1.79 nM
same,koff,hNPR1-mFc:hBNP complex [7],9.6e-05 s⁻¹
same,kon,hNPR1-mFc:hBNP complex [7],53700 M⁻¹ s⁻¹
same,t½,hNPR1-mFc:hBNP complex [7],2 h
same,100 nM Ag Bound (RU),mfNPR1-mFc:hANP complex [8],169 RU
same,Kd,mfNPR1-mFc:hANP complex [8],1.31 nM
same,koff,mfNPR1-mFc:hANP complex [8],8.9e-05 s⁻¹
same,kon,mfNPR1-mFc:hANP complex [8],68000 M⁻¹ s⁻¹
same,t½,mfNPR1-mFc:hANP complex [8],2.16 h
